Test results taken from IntAct's records for PubMed 23598340.

B1: Ktr system potassium uptake protein B (Bacillus subtilis), O32081 (parent)
chain: MTLQKDKVIKWVRFTPPQVLAIGFFLTIIIGAVLLMLPISTTKPLSWIDALFTAASATTVTGLAVVDTGTQFTVFGQTVIMGLIQIGGLGFMTFAVLIVMILGKKIGLKERMLVQEALNQPTIGGVIGLVKVLFLFSISIELIAALILSIRLVPQYGWSSGLFASLFHAISAFNNAGFSLWPDNLMSYVGDPTVNLVITFLFITGGIGFTVLFDVMKNRRFKTFSLHTKLMLTGTLMLNAIAMLTVFILEYSNPGTLGHLHIVDKLWASYFQAVTPRTAGFNSLDFGSMREGTIVFTLLLMFIGAGSASTASGIKLTTFIVILTSVIAYLRGKKETVIFRRSIKYPIIIKALAVSVTSLFIVFLGIFALTITEQAPFLQIVFETFSAFGTVGLTMGLTPELTTAGKCIIIVIMFIGRIGPLTFVFSFAKTEQSNIRYPDGEVFTG
partner: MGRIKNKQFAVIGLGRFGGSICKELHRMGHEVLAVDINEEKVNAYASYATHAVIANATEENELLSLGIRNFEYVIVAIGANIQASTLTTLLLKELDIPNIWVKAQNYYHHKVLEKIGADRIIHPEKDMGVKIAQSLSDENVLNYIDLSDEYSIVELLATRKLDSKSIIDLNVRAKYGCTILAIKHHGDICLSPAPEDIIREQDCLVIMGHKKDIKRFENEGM

Variants of: B1
Settings: with ktra_bacsu ktrA

Row | Variant | effect of a mutation on the interaction
1 | L108A | decreasing interaction strength
